One block for each molecule: values may come before it.
Columns and labels:
[1] = molecular target: human chymotrypsin C (CTRC) mutant N52S, active enzyme (human) (UniProt Q99895); test: equilibrium inhibitor binding assay
[2] = molecular target: human chymotrypsin C (CTRC), wild type, active enzyme (human) (UniProt Q99895); test: equilibrium inhibitor binding assay
[3] = Leu81-Glu82 cleavage time course, SDS-PAGE; details: glycan lost; control: wild type (HEK 293T)
[4] = steady-state kinetics, purified CTRC; details: glycan lost; control: wild type (HEK 293T)
[5] = trypsin-induced mobility shift on reducing SDS-PAGE; details: glycan lost; control: wild type
[6] = casein digestion time course, SDS-PAGE; details: glycan lost; control: wild type (HEK 293T)
[7] = active site titration of media with SGPI-2; details: glycan lost; control: wild type
[8] = CTRC activity of HEK 293T conditioned media; details: glycan gained; control: wild type

- Kd [1]: 2.7 nM
- Kd [2]: 3.9 nM
Molecule: Schistocerca gregaria proteinase inhibitor-2 (SGPI-2) (natural protein)

B1: human chymotrypsin C (CTRC): N52S (protein)
parent chain: MLGITVLAALLACASSCGVPSFPPNLSARVVGGEDARPHSWPWQISLQYLKNDTWRHTCGGTLIASNFVLTAAHCISNTRTYRVAVGKNNLEVEDEEGSLFVGVDTIHVHKRWNALLLRNDIALIKLAEHVELSDTIQVACLPEKDSLLPKDYPCYVTGWGRLWTNGPIADKLQQGLQPVVDHATCSRIDWWGFRVKKTMVCAGGDGVISACNGDSGGPLNCQLENGSWEVFGIVSFGSRRGCNTRKKPVVYTRVSAYIDWINEKMQL
- enzymatic_activity [3]: no change
- enzymatic_activity, kcat_Km [4]: no change, 1.2 × 106 vs 1.2 × 106
- other: proteolytic processing [5]: no change
- enzymatic_activity [6]: no change

B2: rat CTRC: N90S (protein)
parent chain: MLGITVLAAILACASCCGNPAFPPNLSTRVVGGEDAVPNSWPWQVSLQYLKDDTWRHTCGGSLITTSHVLTAAHCINKDFTYRVGLGKYNLTVEDEEGSVYAEVDTIYVHEKWNRLFLWNDIAIIKLAEPVELSNTIQVACIPEEGSLLPQDYPCYVTGWGRLWTNGPIAEVLQQGLQPIVSHATCSRLDWWFIKVRKTMVCAGGDGVISACNGDSGGPLNCQAEDGSWQVHGIVSFGSSSGCNVHKKPVVFTRVSAYNDWINEKIQL
- expression_or_secretion, other: concentration in medium [7]: decreases, 62.4 vs 175

B3: bovine CTRC: E92T (protein)
parent chain: MLGITVFTTFLAYASSCGAPIFQPNLSARVVGGEDAIPHSWPWQISLQYLRDNTWRHTCGGTLITPNHVLTAAHCISNTLTYRVALGKNNLEVEDEAGSLYVGVDTIFVHEKWNSFLVRNDIALIKLAETVELSDTIQVACLPEEGSLLPQDYPCFVTGWGRLYTNGPIAAELQQGLQPVVDYATCSQRDWWGTTVKETMVCAGGDGVISACNGDSGGPLNCQAENGNWDVRGIVSFGSGLSCNTFKKPTVFTRVSAYIDWINQKLQL
- expression_or_secretion, fold_change [8]: no change

Reference: paper PMC3209518
